Data: US9789196B2, “Site-specific insulin-polymer conjugates” (AntriaBio, Inc., priority 2003, dated 2017)

What was measured:
[1] = Characterization of PEG-insulin PLGA microspheres (coreload, encapsulation efficiency by RP-HPLC); assay type: physicochemical; conditions: PLGA 45:55 L:G, 0.15 dL/g, acid end group microspheres, nominal core load 25 wt %
Description: PEG-insulin F5000 (50 mg) was dissolved in 1 ml methylene chloride. The solution was added to a volume of 1 ml methylene chloride containing 150 mg PLGA 45:55 (lac:gly), 0.15 dl/g IV with acid end groups. The methylene chloride solution was added to 5 ml water containing 1% poly(vinyl alcohol) in a 15 ml centrifuge tube and vortex-mixed to form an emulsion. The emulsion was added to 100 ml of water containing 0.3% poly(vinyl alcohol) and stirred for 3 hrs to evaporate the methylene chloride. The hardened microspheres were collected by vacuum filtration on Whatman #1 filter paper and dried.
The PEG-insulin microspheres' surface morphology and particle size distribution were examined by scanning electron microscope and laser-light scattering particle size analysis, respectively. Analytical reverse phase HPLC was used to quantify the amount of PEG-insulin conjugate encapsulated within the polymer microspheres. Prior to HPLC analysis, a measured quantity of microspheres was dissolved in a volume of acetonitrile, and an equivalent volume of 0.1% TFA in water was added to precipitate the polymer and extract the conjugate into aqueous solution. K2000, K5000, K10000, K20000 and F5000-A were also encapsulated using this method. The results of these tests are collected in Table 1, which lists the PEG-insulin content in % (w/w) of the total microsphere and the encapsulation efficiency, defined as weight of PEG-insulin encapsulated/weight of PEG-insulin added initially. Relatively high drug content up to 28.3% and encapsulation efficiency, up to 100%, were achieved, making the product clinically useful due to reduced total dose required, and commercially attractive due to low losses of starting material. In addition, microspheres were prepared using polymers of varying lactide:glycolide ratios (50:[…]), molecular weights (6.5-24 kDa), intrinsic viscosities (0.09-0.27 dL/g), or terminal ester groups (methyl and lauryl), with a wide range of drug loadings (5-35 wt %).
Microspheres were prepared with PLGA (45:55 L:G, 0.15 dL/g, acid end group) to a nominal core load of 25 wt %.

[2] = In vitro release of PEG-insulin from PLGA microspheres; assay type: physicochemical; conditions: PLGA 45:55 microspheres, nominal core load 25 wt %
Description: A sample of 15 mg […] PEG-insulin microspheres (14.1% drug content, PLGA 45:55; 0.15 dl/g IV, acid end groups) was suspended in 1.5 ml phosphate buffered saline (pH 7.4, 0.02% sodium azide and 0.02% Tween20) and incubated at 37° C. The supernatant was withdrawn at intervals and analyzed by RP HPLC for released PEG-insulin. The buffer was replaced with fresh PBS and the incubation continued. The data were analyzed for cumulative release as a function of incubation time (FIG. 4). Less than 1.0% of the PEG-insulin is released in the first day and over 95% is released within 18 days. The low “burst” release, high total release and duration over approximately a two-week period are highly desired features of a sustained release insulin formulation.

[3] = test system: fasted Sprague-Dawley rats; assay: Pharmacodynamics of PEG-insulin conjugates after intravenous injection to normal rats (blood glucose); assay type: in vivo, rat; conditions: 0.3 IU/kg equivalent; for suppression of glucose levels relative to normal human insulin: tail vein injection, fasted Sprague-Dawley rats, 6 hrs, vs Humulin R
Description: The effects of PEGylation on insulin pharmacodynamics were investigated. These studies were conducted to evaluate the in vivo biological activity (ability to lower serum glucose) of conjugate formulations containing PEG-insulins differing in site of substitution (positional isomers) or PEG molecular weight, relative to a commercially available insulin formulation (Humulin R, Lilly). Blood glucose levels were measured for fasted Sprague-Dawley rats after intravenous administration of F5000, K2000, K5000, K10000, or HumulinR®. The equivalent of 0.3 IU/kg (based on protein concentration and corrected for the weight of the PEG as appropriate; assumes 25 IU/mg protein) were dissolved in normal saline and administered by tail vein injection; N=6 per group. Blood was drawn before test article injection and at intervals over a period of 6 hrs post injection. Serum was isolated by standard procedure and glucose levels were measured using an Accucheck Advantage (Boeringer Ingelheim) glucose meter.

rabbits = conditions: calculated on a molar basis; cited from earlier work
liver enzymes = conditions: cited from earlier work

Substance	Coreload [1]	Encapsulation Efficiency [1]	In vitro release, Initial burst [2]	In vitro release, Total [2]	suppression of glucose levels relative to normal human insulin [3]	duration of action ([3]; intravenous, normal rats)	insulin effect on reduction of blood sugar levels (rabbits)	stability to liver enzymes compared with native insulin (liver enzymes)
F5000-A: probably F5000 made with mPEG(5000)-aldehyde, secondary amine bond at PheB1 (Example 5) [Conjugate F5000-A]	21 wt %	85 wt %	20%	97%	–	–	–	–
K2000: linear mPEG-SPA 2000 Da attached to the amino group of LysB29 of insulin [Conjugate K2000]	24 wt %	96 wt %	6%	–	as effective in suppressing the glucose levels in normal rats as equivalent doses of normal human insulin	–	–	–
K5000: PEG-5000 linked to insulin B chain Lys29 [Conjugate K5000]	24 wt %	96 wt %	2%	–	as effective in suppressing the glucose levels in normal rats as equivalent doses of normal human insulin	–	–	–
K10000: branched mPEG2-SPA 10,000 Da attached to the amino group of LysB29 of insulin [Conjugate K10000]	19 wt %	76 wt %	80%	–	did not reduce glucose levels to the same extent as the other test articles	exceed 6 hours	–	–
K20000: branched mPEG2-SPA 20,000 Da attached to the amino group of LysB29 of insulin [Conjugate K20000]	14 wt %	56 wt %	80%	–	–	–	–	–
mPEG(1500)-B1-insulin: prior-art site-specific PEG 1500 conjugate of insulin at residue PheB1 (Obermeier; Geiger; Ehrat)	–	–	–	–	–	–	100%	far more stable (to liver enzymes)
mPEG(5000)-PheB1-insulin [Conjugate F5000]	24 wt %	96 wt %	2%	–	as effective in suppressing the glucose levels in normal rats as equivalent doses of normal human insulin	–	–	–
